# T1: human B7-H4 on cells (human, UniProt Q7Z7D3 25-282)
# T1 sequence (looked up): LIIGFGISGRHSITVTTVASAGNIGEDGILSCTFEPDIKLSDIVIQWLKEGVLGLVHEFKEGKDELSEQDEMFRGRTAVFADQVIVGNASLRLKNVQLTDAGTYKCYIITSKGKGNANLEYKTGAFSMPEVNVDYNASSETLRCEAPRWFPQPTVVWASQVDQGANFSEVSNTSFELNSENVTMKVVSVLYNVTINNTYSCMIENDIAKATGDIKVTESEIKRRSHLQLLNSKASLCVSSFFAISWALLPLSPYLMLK
# T2: human B7-H4 extracellular domain (human, UniProt Q7Z7D3 29-258)
# T2 construct: Soluble ECD used as SPR analyte; also called huB7-H4 ECD; huB7-H4
# T2 sequence: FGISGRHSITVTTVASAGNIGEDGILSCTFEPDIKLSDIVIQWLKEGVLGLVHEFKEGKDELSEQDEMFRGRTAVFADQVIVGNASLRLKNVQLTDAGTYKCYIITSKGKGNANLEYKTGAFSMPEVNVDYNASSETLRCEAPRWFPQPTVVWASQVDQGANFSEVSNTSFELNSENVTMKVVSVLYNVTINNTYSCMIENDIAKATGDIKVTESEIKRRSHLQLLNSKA
# T3: cyno B7-H4 extracellular domain (cyno, UniProt Q7Z7D3 29-258 (human entry))
# T3 construct: Soluble ECD used as SPR analyte; also called cyB7-H4 ECD; cyB7-H4
# T3 sequence: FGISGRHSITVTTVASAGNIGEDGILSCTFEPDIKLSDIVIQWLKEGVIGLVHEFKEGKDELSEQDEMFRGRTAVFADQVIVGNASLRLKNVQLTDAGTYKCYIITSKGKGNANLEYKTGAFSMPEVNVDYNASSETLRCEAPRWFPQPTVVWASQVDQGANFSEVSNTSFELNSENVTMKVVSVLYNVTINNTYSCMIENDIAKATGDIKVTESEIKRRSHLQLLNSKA
# T4: mouse B7-H4 extracellular domain (mouse, UniProt Q7TSP5 29-258)
# T4 construct: Soluble ECD used as SPR analyte; also called muB7-H4 ECD; muB7-H4
# T4 sequence: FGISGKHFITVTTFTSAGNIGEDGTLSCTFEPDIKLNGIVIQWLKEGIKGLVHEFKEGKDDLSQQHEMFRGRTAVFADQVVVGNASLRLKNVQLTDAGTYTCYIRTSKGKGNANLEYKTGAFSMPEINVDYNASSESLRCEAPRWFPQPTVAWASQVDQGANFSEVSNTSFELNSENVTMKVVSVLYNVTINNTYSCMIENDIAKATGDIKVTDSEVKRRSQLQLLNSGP
# Experiments:
# human B7-H4 on cells [1] = target: T1, human B7-H4 on cells; test: cell-based or functional assay
# human B7-H4 on cells [2] = target: T1, human B7-H4 on cells; test: flow cytometry on MX-1 cells, 37 C
# [3] = target: T5, human CD3 on primary human T cells (human, UniProt P07766 23-207; P04234 22-171); test: flow cytometry on primary human T cells, 37 C
# T5 construct: whole, on cells; On cells the whole CD3/TCR complex is present
# T5 sequence (P07766 23-207, chain 1 of 2): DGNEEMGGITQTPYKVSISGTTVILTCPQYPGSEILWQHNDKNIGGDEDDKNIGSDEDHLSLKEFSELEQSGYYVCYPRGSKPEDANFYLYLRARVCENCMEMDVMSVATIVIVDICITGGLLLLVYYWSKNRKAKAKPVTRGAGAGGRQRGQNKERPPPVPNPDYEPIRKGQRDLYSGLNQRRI
# T5 sequence (P04234 22-171, chain 2 of 2): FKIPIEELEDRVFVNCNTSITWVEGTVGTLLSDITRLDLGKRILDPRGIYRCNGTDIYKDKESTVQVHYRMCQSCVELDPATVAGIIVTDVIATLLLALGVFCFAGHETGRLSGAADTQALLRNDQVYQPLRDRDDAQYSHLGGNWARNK
# [4] = target: T2, human B7-H4 extracellular domain; test: SPR 25 C; bispecific on anti-hFc chip, ECD analyte
# [5] = target: T3, cyno B7-H4 extracellular domain; test: SPR 25 C; bispecific on anti-hFc chip, ECD analyte
# [6] = target: T4, mouse B7-H4 extracellular domain; test: SPR 25 C; bispecific on anti-hFc chip, ECD analyte
# [7] = target: T2, human B7-H4 extracellular domain; test: SPR 37 C; bispecific on anti-hFc chip, ECD analyte
# [8] = target: T3, cyno B7-H4 extracellular domain; test: SPR 37 C; bispecific on anti-hFc chip, ECD analyte
# [9] = target: T6, human CD3 (delta/epsilon heterodimer) (human, UniProt P07766 23-126; P04234 22-105); test: SPR 25 C; CD3 delta/epsilon on anti-His chip, bispecific analyte
# T6 construct: captured on an anti-His chip, so it carries a His tag; also called huCD3
# T6 sequence (P07766 23-126, stated change not applied, chain 1 of 2): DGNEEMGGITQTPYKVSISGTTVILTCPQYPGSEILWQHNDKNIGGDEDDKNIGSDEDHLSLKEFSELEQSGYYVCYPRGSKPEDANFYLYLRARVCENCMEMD
# T6 sequence (P04234 22-105, stated change not applied, chain 2 of 2): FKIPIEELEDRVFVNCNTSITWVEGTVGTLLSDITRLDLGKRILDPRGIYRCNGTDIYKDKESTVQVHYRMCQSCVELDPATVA
# [10] = target: T7, cyno CD3 (delta/epsilon heterodimer) (cyno, UniProt Q95LI5 22-117; Q95LI8 22-105); test: as above
# T7 construct: also called cyCD3
# T7 sequence (Q95LI5 22-117, stated change not applied, chain 1 of 2): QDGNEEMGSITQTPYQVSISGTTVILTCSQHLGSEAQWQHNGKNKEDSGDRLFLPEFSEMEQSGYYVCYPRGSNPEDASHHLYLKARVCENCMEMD
# T7 sequence (Q95LI8 22-105, stated change not applied, chain 2 of 2): as the sequence (P04234 22-105, stated change not applied, chain 2 of 2) above, with I5V, N15K, I20V, S32T, D33N, I34N, T64A, S74N, V83L counted along it
# Throughout, for T cell mediated tumor cell killing, T47D: unit not given here.
binder,measurement,setting,value
"B7-H4xCD3 bispecific antibody 1136 (bispecific antibody, IgG2, Chains 1-2: B7-H4 arm; chains 3-4: CD3 arm; IgG2) heavy 1: EVQLVESGGGLVQPGGSLRLSCAASGGSFSGYYWNWIRQPPGKGLEWIGEINHSGSATYNPSLKSRVTISVDTAKNSFYLQMNSLRAEDTAVYYCARGLYNWNVDHWGQGTLVTVSSASTKGPSVFPLAPCSRSTSESTAALGCLVKDYFPEPVTVSWNSGALTSGVHTFPAVLQSSGLYSLSSVVTVPSSNFGTQTYTCNVDHKPSNTKVDKTVERKCEVECPECPAPPVAGPSVFLFPPKPKDTLMISRTPEVTCVVVAVSHEDPEVQFNWYVDGVEVHNAKTKPREEQFNSTFRVVSVLTVVHQDWLNGKEYKCKVSNKGLPSSIEKTISKTKGQPREPQVYTLPPSREEMTKNQVSLTCEVKGFYPSDIAVEWESNGQPENNYKTTPPMLDSDGSFFLYSKLTVDKSRWQQGNVFSCSVMHEALHNHYTQKSLSLSPG light 1: DIQMTQSPSSLSASVGDRVTITCRASQGIRNDLGWYQQKPGKAPKRLIYAASSLQSGVPSRFSGSGSGTDFTLTISSLQPEDFATYYCLQHNAYPRTFGGGTKVEIKRTVAAPSVFIFPPSDEQLKSGTASVVCLLNNFYPREAKVQWKVDNALQSGNSQESVTEQDSKDSTYSLSSTLTLSKADYEKHKVYACEVTHQGLSSPVTKSFNRGEC heavy 2: EVQLVESGGGLVQPGGSLRLSCAASGFTFSDYYMTWVRQAPGKGLEWVAFIRNQARGYTSDHNPSVKGRFTISRDNAKNSLYLQMNSLRAEDTAVYYCARDRPSYYVLDYWGQGTTVTVSSASTKGPSVFPLAPCSRSTSESTAALGCLVKDYFPEPVTVSWNSGALTSGVHTFPAVLQSSGLYSLSSVVTVPSSNFGTQTYTCNVDHKPSNTKVDKTVERKCRVRCPRCPAPPVAGPSVFLFPPKPKDTLMISRTPEVTCVVVAVSHEDPEVQFNWYVDGVEVHNAKTKPREEQFNSTFRVVSVLTVVHQDWLNGKEYKCKVSNKGLPSSIEKTISKTKGQPREPQVYTLPPSREEMTKNQVSLTCLVKGFYPSDIAVEWESNGQPENNYKTTPPMLDSDGSFFLYSRLTVDKSRWQQGNVFSCSVMHEALHNHYTQKSLSLSPGK light 2: DIQMTQSPSSLSASVGDRVTITCTSSQSLFNVRSQKNYLAWYQQKPGKAPKLLIYWASTRESGVPSRFSGSGSGTDFTLTISSLQPEDFATYYCKQSYDLFTFGGGTKVEIKRTVAAPSVFIFPPSDEQLKSGTASVVCLLNNFYPREAKVQWKVDNALQSGNSQESVTEQDSKDSTYSLSSTLTLSKADYEKHKVYACEVTHQGLSSPVTKSFNRGEC","T cell mediated tumor cell killing EC50, HCC1954-Luc",human B7-H4 on cells [1],500 nM
same,"T cell mediated tumor cell killing, T47D",human B7-H4 on cells [1],3820
same,EC50,human B7-H4 on cells [2],3.55 nM
same,EC50,[3],5.7 nM
"B7-H4xCD3 bispecific antibody 0080 (bispecific antibody, IgG2, Chains 1-2: B7-H4 arm; chains 3-4: CD3 arm; IgG2 EEE/RRR; also called anti-B7-H4 clone 7H7) heavy 1: QVQLQQWGAGLLKPSETLPLTCAVYGGSFSGYYWNWIRQPPGKGLEWIGEINHSGSATYNPSLKSRVTISVDTSKNHFSLKLSSVTAADTAVYFCARGLYNWNVDHWGQGTLVTVSSASTKGPSVFPLAPCSRSTSESTAALGCLVKDYFPEPVTVSWNSGALTSGVHTFPAVLQSSGLYSLSSVVTVPSSNFGTQTYTCNVDHKPSNTKVDKTVERKCEVECPECPAPPVAGPSVFLFPPKPKDTLMISRTPEVTCVVVAVSHEDPEVQFNWYVDGVEVHNAKTKPREEQFNSTFRVVSVLTVVHQDWLNGKEYKCKVSNKGLPSSIEKTISKTKGQPREPQVYTLPPSREEMTKNQVSLTCEVKGFYPSDIAVEWESNGQPENNYKTTPPMLDSDGSFFLYSKLTVDKSRWQQGNVFSCSVMHEALHNHYTQKSLSLSPGK light 1: DIQMTQSPSSLSASVGDRVTITCRASQGIRNDLGWYQQKPGKAPKRLIYAASSLQSGVPSRFSGSGSGTEFTLTISSLQPEDFATYYCLQHNSYPRTFGGGTKVEIKRTVAAPSVFIFPPSDEQLKSGTASVVCLLNNFYPREAKVQWKVDNALQSGNSQESVTEQDSKDSTYSLSSTLTLSKADYEKHKVYACEVTHQGLSSPVTKSFNRGEC heavy 2: EVQLVESGGGLVQPGGSLRLSCAASGFTFSDYYMTWVRQAPGKGLEWVAFIRNQARGYTSDHNPSVKGRFTISRDNAKNSLYLQMNSLRAEDTAVYYCARDRPSYYVLDYWGQGTTVTVSSASTKGPSVFPLAPCSRSTSESTAALGCLVKDYFPEPVTVSWNSGALTSGVHTFPAVLQSSGLYSLSSVVTVPSSNFGTQTYTCNVDHKPSNTKVDKTVERKCRVRCPRCPAPPVAGPSVFLFPPKPKDTLMISRTPEVTCVVVAVSHEDPEVQFNWYVDGVEVHNAKTKPREEQFNSTFRVVSVLTVVHQDWLNGKEYKCKVSNKGLPSSIEKTISKTKGQPREPQVYTLPPSREEMTKNQVSLTCLVKGFYPSDIAVEWESNGQPENNYKTTPPMLDSDGSFFLYSRLTVDKSRWQQGNVFSCSVMHEALHNHYTQKSLSLSPGK light 2: DIQMTQSPSSLSASVGDRVTITCTSSQSLFNVRSQKNYLAWYQQKPGKAPKLLIYWASTRESGVPSRFSGSGSGTDFTLTISSLQPEDFATYYCKQSYDLFTFGGGTKVEIKRTVAAPSVFIFPPSDEQLKSGTASVVCLLNNFYPREAKVQWKVDNALQSGNSQESVTEQDSKDSTYSLSSTLTLSKADYEKHKVYACEVTHQGLSSPVTKSFNRGEC","T cell mediated tumor cell killing EC50, HCC1954-Luc",human B7-H4 on cells [1],36 nM
same,Kd,[4],2.39 nM
same,koff,[4],0.000692 s⁻¹
same,kon,[4],296000 M⁻¹ s⁻¹
same,Kd,[5],4.29 nM
same,koff,[5],0.000676 s⁻¹
same,kon,[5],157000 M⁻¹ s⁻¹
same,Kd,[6],74.8 nM
same,koff,[6],0.0138 s⁻¹
same,kon,[6],189000 M⁻¹ s⁻¹
same,Kd,[7],6.08 nM
same,koff,[7],0.00283 s⁻¹
same,kon,[7],465000 M⁻¹ s⁻¹
same,Kd,[8],12.8 nM
same,koff,[8],0.00282 s⁻¹
same,kon,[8],220000 M⁻¹ s⁻¹
same,Kd,[9],12.7 nM
same,koff,[9],0.00521 s⁻¹
same,kon,[9],411000 M⁻¹ s⁻¹
same,Kd,[10],13.3 nM
same,koff,[10],0.00493 s⁻¹
same,kon,[10],372000 M⁻¹ s⁻¹

# — patent US20220017622A1 (Pfizer, published 2022)
